This note sets out measurements from US20140271653A1 (Regeneron, published 2014).

The target in assay [1] is T1, RSV-F of RSV subtype A strain A2 (1540) (respiratory syncytial virus subtype A, …, UniProt P03420 26-574). As to the kind of experiment: cell-based or functional assay.
Assay [2] addresses T2, RSV-F.mmh (Respiratory Syncytial Virus).
T2 construct: also called recombinant RSV-F; soluble monomeric RSV-F
As to the kind of experiment: SPR (Biacore), mAb captured via Fc, soluble RSV-F.mmh injected, 25 C.

Assay [3] deals with T2, RSV-F.mmh. Described as above. This is another data set of the same source.
Method: Measurements were conducted on a Biacore 4000 or T-200 instrument. […] All Biacore binding studies were performed in HBST running buffer (0.01 M HEPES pH 7.4, 0.15 M NaCl, 3 mM EDTA, 0.005% v/v surfactant P20). Different concentrations of RSV-F.mmh prepared in HBST running buffer were injected over the anti-RSV-F monoclonal antibody captured surface at a flow rate of 30 μl/min (Biacore 4000) or at a flow rate of 50 μl/min (Biacore T-200) and the association of RSV-F.mmh to captured monoclonal antibody was monitored for 6 min or 3 min respectively. The dissociation of RSV-F.mmh from the monoclonal antibody in HBST running buffer was monitored for 8-10 min at 25° C. Kinetic association (kₐ) and dissociation (kd) rate constants were determined by processing and fitting the data to a 1:1 binding model using Scrubber 2.0 curve fitting software. Binding dissociation equilibrium constants (KD) and dissociative half-lives (t½) were calculated from the kinetic rate constants as: KD (M)=kd/kₐ; and t_{1/2} (min)=(ln 2/(60*kd).
For assay [4], the target named is T3, RSV-F of RSV subtype A strain Long (respiratory syncytial virus subtype A, …, UniProt P12568 26-574). As to the kind of experiment: cell-based or functional assay.
For assay [5], the target named is T1, RSV-F of RSV subtype A strain A2 (1540). As to the kind of experiment: cell-based or functional assay. The source holds these as a separate data set.
The target in assay [6] is T4, RSV-F of RSV subtype B strain 9320 (respiratory syncytial virus subtype B, …). As to the kind of experiment: cell-based or functional assay.
For assay [7], the target named is T5, RSV-F of RSV subtype B strain 1580 (respiratory syncytial virus subtype B, …). Nature of the assay: cell-based or functional assay.
For assay [8], the target named is T5, RSV-F of RSV subtype B strain 1580. Nature of the assay: cell-based or functional assay. This is another data set of the same source.
The target of assay [9] is T1, RSV-F of RSV subtype A strain A2 (1540). Nature of the assay: cell-based or functional assay. This is another data set of the same source.
Assay [10] concerns the target RSV-F of RSV subtype A clinical isolate A1998/12-21 (respiratory syncytial virus subtype A, …). Nature of the assay: cell-based or functional assay.
The target in assay [11] is RSV-F of RSV subtype A clinical isolate A2001/2-20 (respiratory syncytial virus subtype A, …). Nature of the assay: cell-based or functional assay.
Assay [12] addresses RSV-F of RSV subtype A clinical isolate A2000/3-4 (respiratory syncytial virus subtype A, …). As to the kind of experiment: cell-based or functional assay.
Assay [13] has as its target RSV-F of RSV subtype A clinical isolate A2001/3-12 (respiratory syncytial virus subtype A, …). As to the kind of experiment: cell-based or functional assay.
The target in assay [14] is RSV-F of RSV subtype A clinical isolate A1998/3-2 (respiratory syncytial virus subtype A, …). As to the kind of experiment: cell-based or functional assay.
Assay [15] has as its target RSV-F of RSV subtype A clinical isolate A1997/12-35 (respiratory syncytial virus subtype A, …). Nature of the assay: cell-based or functional assay.
Assay [16] deals with RSV-F of RSV subtype B strain 1400 (respiratory syncytial virus subtype B, …). As to the kind of experiment: cell-based or functional assay.
The target of assay [17] is T3, RSV-F of RSV subtype A strain Long. Nature of the assay: cell-based or functional assay. This is another data set of the same source.
Assay [18] concerns the target T4, RSV-F of RSV subtype B strain 9320. Nature of the assay: cell-based or functional assay. The source holds these as a separate data set.
For assay [19], the target named is RSV-F of RSV subtype B strain 18537 (respiratory syncytial virus subtype B, …, UniProt P13843 26-574). Nature of the assay: cell-based or functional assay.
Assay [20] deals with RSV-F of RSV subtype B strain 1A2 (respiratory syncytial virus subtype B, …). Nature of the assay: cell-based or functional assay.
In assay [21] the target is T1, RSV-F of RSV subtype A strain A2 (1540). Nature of the assay: cell-based or functional assay. This is another data set of the same source.
Assay [22] shares this target. Nature of the assay: cell-based or functional assay. This is another data set of the same source.

Where two headings read alike, the source gives them in different places.

B1: H1H3608P2 (antibody, V domains shown)
VH: QVQLVESGGGVVQPGRSLRLSCAASGFTFSSYGMHWVRQAPGKGLEWVAVIYYEGSNDYYVDSVKGRFTISRDNSKNTLYLQMNSLRAEDTAVYYCARRDWNSFDYWGQGTLVTVSS
VL: DIVMTQSPLSLSVTPGEPASISCRSSQNLLNRNGFNYLDWYLQKPGQSPQLLIYLGSNRASGVPDRFSGSGSGTDFTLKISRVEVEDVGVYYCMQAIQTPYTFGQGTKLEIK
As to B1, in assay [1], the “IC50 [pM] for RSV A2 Neutralization, Trial 1” value (from here on “IC50 [pM] … Trial 1”) was over 10000 pM. In assay [2], the equilibrium dissociation constant (Kd) worked out at 5.35 nM, the koff worked out at 2.6e-05 s⁻¹, the kon came to 4850 M⁻¹ s⁻¹ and the “t½” value came out at 7.42 h.

B2: H1M3627N (antibody, V domains shown)
VH: EVQLVESGGGLVQPGGSLRLSCAASGFTISNYEMNWVRQAPGKGLEWVSYISTSGITIYYADSVQGRFTISRDNAKNSLYLQLNSLRAEDTAVYYCARGYCTNGVCYPHYYYSDMDVWGQGTTVTVSS
VL: DIQMTQSPSSLSASVGDRLTITCRASQTISTYLNWFQQKVGNAPKLLIYSTSSLQSGVPARFSGSGSGTDFTLTISSLQPEDFATYYCQQSYSSPPTFGQGTKVEIK
Take B2: in assay [1], the “IC50 [pM] … Trial 1” value was determined as 4 pM; the “IC50 [pM] for RSV A2 Neutralization, Trial 2” value (“IC50 [pM] … Trial 2” below) is 4 pM; the “IC50 [pM] for RSV A2 Neutralization, Trial 3” value came out at 5 pM; the “IC50 [pM] for RSV A2 Neutralization, Trial 6” value stood at 10 pM. For the same molecule, in assay [3], the dissociation constant (Kd) came out at 2.02 nM, the off-rate constant (koff) was 0.000523 s⁻¹, the kon amounted to 259000 M⁻¹ s⁻¹ and the “t½” value came to 0.367 h.

B3: H1H3627N (antibody, V domains shown)
VH: EVQLVESGGGLVQPGGSLRLSCAASGFTISNYEMNWVRQAPGKGLEWVSYISTSGITIYYADSVQGRFTISRDNAKNSLYLQLNSLRAEDTAVYYCARGYCTNGVCYPHYYYSDMDVWGQGTTVTVSS
VL: DIQMTQSPSSLSASVGDRLTITCRASQTISTYLNWFQQKVGNAPKLLIYSTSSLQSGVPARFSGSGSGTDFTLTISSLQPEDFATYYCQQSYSSPPTFGQGTKVEIK
Take B3: in [4], the “RSV-Long Neutral. IC50 [pM]” value worked out at 7.3 pM and the “RSV-Long neutralization, Fold Improvement Relative to Control 1” value came out at 73 fold. Moreover, in assay [5], the “RSV-A2 (1540) Neutral. IC50 [pM]” value came out at 2.6 pM and the “RSV-A2 (1540) neutralization, Fold Improvement Relative to Control 1” value worked out at 138 fold. Further, the “IC50 [pM] for RSV A2 Neutralization, Trial 7” value in [1] was 3 pM. Also, in [2], the Kd is 0.581 nM, the koff turned out to be 0.000149 s⁻¹, the kon turned out to be 256000 M⁻¹ s⁻¹ and the “t½” value was 1.3 h. Besides, in [6], the “RSV-9320 Neutral. IC50 [pM]” value amounted to 11 pM and the “RSV-9320 neutralization, Fold Improvement Relative to Control 1” value worked out at 42 fold. Further, in [7], the “RSV - 1580 Neutral. IC50 [pM]” value amounted to 6.7 pM and the “RSV - 1580 neutralization, Fold Improvement Relative to Control 1” value was 55 fold.

B4: H1H3592P3 (antibody, V domains shown)
VH: EVQLVESGGDLVQPGRSLRLSCVASGFTFDDYAMHWVRQAPGKGLEWVSGVSWSGSTVGYADSVKGRFTVSRDNAQKSLYLQMNSLRAEDTALYYCVKDAYKFNYYYYGLDVWGQGTTVTVSS
VL: EIVMTQSPATLSVSPGERATLSCRASQTILSNLAWYLQKPGQAPRLLIYGASTRATGLPARFSGSGSGTEFTLTISSLQSEDFAVYYCQQYNNWPLTFGGGTKVEIK
On to B4, for which the “Neutralization IC50, pM (microneutralization, wt subtype B)” value in [8] was determined as 290 pM. Further, in assay [9], the “Neutralization IC50, pM (microneutralization, wt subtype A)” value was determined as 177 pM. In assay [4], the “RSV-Long Neutral. IC50 [pM]” value was 15 pM and the “RSV-Long neutralization, Fold Improvement Relative to Control 1” value amounted to 35 fold. Further, in assay [5], the “RSV-A2 (1540) Neutral. IC50 [pM]” value was found to be 10 pM and the “RSV-A2 (1540) neutralization, Fold Improvement Relative to Control 1” value was 36 fold. Also, in [1], the “IC50 [pM] for RSV A2 Neutralization, Trial 7” value amounted to 10 pM. For the same molecule, the “IC50 (pM), RSV micro-neutralization, clinical isolate” value (shortened to “IC50 (pM) … clinical isolate”) in assay [10] is 34 pM. Further, the “IC50 (pM) … clinical isolate” value in assay [11] was 43 pM. Also, in [12], the “IC50 (pM) … clinical isolate” value turned out to be 50 pM. The “IC50 (pM) … clinical isolate” value in assay [13] turned out to be 66 pM. For the same molecule, in assay [14], the “IC50 (pM) … clinical isolate” value was 35 pM. The “IC50 (pM) … clinical isolate” value in assay [15] was determined as 40 pM. In addition, the “IC50 (pM), RSV micro-neutralization, B/1400” value in assay [16] is 33 pM. Also, the “IC50 (pM), RSV micro-neutralization, A/Long” value in [17] came out at 44 pM. Also, the “IC50 (pM), RSV micro-neutralization, B/9320” value in [18] was 151 pM. Besides, in assay [19], the “IC50 (pM), RSV micro-neutralization, B/18537” value worked out at 230 pM. Besides, the “IC50 (pM), RSV micro-neutralization, B/1A2” value in assay [20] was 48 pM. Moreover, in assay [21], the “IC50 (pM), RSV micro-neutralization, A/A2” value stood at 140 pM. In assay [2], the Kd stood at 8.43 nM, the koff stood at 0.000747 s⁻¹, the kon is 88600 M⁻¹ s⁻¹ and the “t½” value was found to be 0.25 h. Also, in assay [6], the “RSV-9320 Neutral. IC50 [pM]” value is 100 pM and the “RSV-9320 neutralization, Fold Improvement Relative to Control 1” value came out at 4.6 fold. Besides, in assay [7], the “RSV - 1580 Neutral. IC50 [pM]” value worked out at 31 pM and the “RSV - 1580 neutralization, Fold Improvement Relative to Control 1” value turned out to be 12 fold. Further, the “IC50 of blocking viral fusion (antibody added after viral attachment at 4 C, infection read by ELISA)” value in assay [22] was 0.23 nM.

B5: H1H3607P (antibody, V domains shown)
VH: QVQLVESGGGLVKPGGSLRLSCAASGFTFSDYYMTWIRQVPGKGLEWVSYISSTGNNRYYGDSVKGRFAISRDNAKNLLFLQMNSLKAEDTAVYYCARENNWNPYFFYYGMDVWGQGTTVTVSS
VL: DIQMTQSPSSVSASVGDRVTITCRASQGISIWLAWYQQKPGKAPKLLISAASTLQSGVPSRFSGSGSGTDFTLTISSLQPEDFATYYCQQANSFPLTFGQGTKVEIK
As for B5, in [1], the “IC50 [pM] … Trial 1” value was over 10000 pM. In assay [2], the Kd was 35 nM, the koff was 0.000148 s⁻¹, the kon amounted to 4200 M⁻¹ s⁻¹ and the “t½” value was found to be 1.3 h.

B6: H1M3622N (antibody, V domains shown)
VH: QVQLQQWGAGLLKPSETLSLTCAVYGGSLSDYYWSWIRQPPGKGLEWIGEINHSGDTNYDPSLKSRLTISVDTSKNQFSLKLNSVTAADTAVYYCASLYFNFWMWGRGALVTVSS
VL: DIVMTQTPLSSPVILGQPASISCRSSQSLVYSDGNTYLSWLQQRPGQPPRLLIYKISNRFSGVPDRFSGSGTGTDFTLKISRVEAEDVGIYYCMQTTQFPLTFGGGTKVEIK
Consider B6, for which, in [1], the “IC50 [pM] … Trial 1” value stood at 320 pM and the “IC50 [pM] … Trial 2” value was found to be 82 pM. Also, in assay [3], the Kd was determined as 2.38 nM, the koff was determined as 9.13e-05 s⁻¹, the kon was determined as 38400 M⁻¹ s⁻¹ and the “t½” value stood at 2.12 h.

B7: H1M3621N (antibody, V domains shown)
VH: QVQLEQSGAEVKKPGASVRISCKASGDTFTGYYINWVRQAPGQGLEWMGWINTNSGGTYFSQKFQVRVILTRDTSINTAYMELSRLRSDDTAVYYCARMFYDILTNSDIFDIWGQGTMVTVSS
VL: DIQMTQSPSSLSASVGDRVTITCRASQDIRNDLGWYQQKPGKAPKCLIYGASSLQSGVPSRFSGSGSGTEFTLTISSLQPEDFATYYCLQHKNYMYTFGQGTKLEIK
With B7, in assay [1], the “IC50 [pM] … Trial 1” value stood at 582 pM and the “IC50 [pM] … Trial 2” value came to 180 pM. For the same molecule, in assay [3], the Kd was determined as 1.01 nM, the koff is 0.000208 s⁻¹, the kon came to 205000 M⁻¹ s⁻¹ and the “t½” value is 0.933 h.

B8: H1M3624N (antibody, V domains shown)
VH: QVQLEQSGAEVKKPGTSVRISCKASGDIFTGYYMNWVRQAPGQGLEWMGWINTNSGGTYFSQRFQGRVTLTRDTSIRTAYMELSRLRSDDTAVYYCARMFYDILTGSDVFDIWGQGTMVTVSS
VL: DIQMTQSPSSLSASVGDRVTITCRASQDIRNDLGWYHQKPGKAPKCLIYGASSLQSGVPSRFSGSGSGTEFTLTISSLQPEDFATYYCLQHKNYMYTFGQGTKLEIK
notes: also called H1M2634N
As for B8, in [1], the “IC50 [pM] … Trial 1” value was 540 pM; the “IC50 [pM] … Trial 2” value is 270 pM; the “IC50 [pM] for RSV A2 Neutralization, Trial 3” value turned out to be 92 pM. Moreover, in assay [3], the Kd amounted to 1.02 nM, the off-rate constant (koff) amounted to 0.000183 s⁻¹, the kon was 179000 M⁻¹ s⁻¹ and the “t½” value was determined as 1.05 h.
